According to patent US20250122306A1 (SUTRO BIOPHARMA, published 2025):

How the values were obtained:
[1] = biological target: tissue factor reagent of the Tissue Factor Activity Assay Kit (Abcam #ab108906) (UniProt P13726 33-295, limits assumed); test: cell-based or functional assay
[2] = biological target: human tissue factor on cells (human, UniProt P13726 33-295); test: cell-based or functional assay

Sequence of tissue factor reagent of the Tissue Factor Activity Assay Kit (Abcam #ab108906) (P13726 33-295 limits assumed): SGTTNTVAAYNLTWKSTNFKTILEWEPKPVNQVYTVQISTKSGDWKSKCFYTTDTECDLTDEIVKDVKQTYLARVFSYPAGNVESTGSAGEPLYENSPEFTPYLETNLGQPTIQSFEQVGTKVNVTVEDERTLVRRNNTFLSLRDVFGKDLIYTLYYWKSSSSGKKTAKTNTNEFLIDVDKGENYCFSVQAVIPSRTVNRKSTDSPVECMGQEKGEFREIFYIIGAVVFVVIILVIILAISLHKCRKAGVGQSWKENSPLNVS

Binder | FX conversion (% inhibition), 1000 nM antibody [1] [%] | cell killing EC50, HCC1954 (TF+++) [2] [nM] | cell killing EC50, NCI-H292 (TF++++) [2] [nM] | cell killing EC50, NCI-H1975 (TF++) [2] [nM] | cell killing Span, HCC1954 (TF+++) [2] [%] | cell killing Span, NCI-H292 (TF++++) [2] [%] | cell killing Span, NCI-H1975 (TF++) [2] [%] | other results
SRP2900-H01 (antibody, IgG1, V domains shown) VH: EVQLVESGGGLVQPGGSLRLSCAASGFTIFDYIIHWVRQAPGKGLEWVGYIDPSNGYTYYADSVKGRFTISADTSKNTAYLQMNSLRAEDTAVYYCARDPQSVGSEFDYWGQGTLVTVSS VL: not shown | 30.5 |  |  |  |  |  |  | 
SRP2900-H08 (antibody, IgG1, V domains shown) VH: EVQLVESGGGLVQPGGSLRLSCAASGFTISDYVIHWVRQAPGKGLEWVGYIDPSNGYTFYADSVKGRFTISADTPKNTAYLQMNSLRAKDTAVYYCARDPQSLSSPFDYWGQGTLVTVSS VL: not shown | 32.2 |  |  |  |  |  |  | 
SRP2900-H10 (antibody, IgG1, V domains shown) VH: EVQLVESGGGLVQPGGSLRLSCAASGFTISDYVIHWVRQAPGKGLEWVGYIDPSNGFTYYADSVKGRFTISADTSKNTAYLQTNSLRAEDTAVYYCARDIQSVSGEFDYWGQGTLVTVSS VL: not shown | 45.4 |  |  |  |  |  |  | 
SRP2900-H03 (antibody, IgG1, V domains shown) VH: EVQLVESGGGLVQPGGSLRLSCAASGFTIYDYIIHWVRQAPGKGLEWVGYIDPSNGYTYHADSVKGRFTISADTSKNTAYLQMNSLRAEDTAVYYCARDPQSLSSPFDYWGQGTLVTVSS VL: not shown | 40.8 |  |  |  |  |  |  | 
SRP2900-H02 (antibody, IgG1, V domains shown) VH: EVQLVESGGGLVQPGGSLRLSCAASGFTIFDYIIHWVRQAPGKGLEWVGYIDPSNGYTYYADSVKGRFTISADTSKNTAYLQMNSLRAEDTAVYYCARDIQSVSGEFDYWGQGTLVTVSS VL: not shown | 40.4 |  |  |  |  |  |  | 
SRP2900-H04 (antibody, IgG1, V domains shown) VH: EVQLVESGGGLVQPGGSLRLSCAASGFTISHYIIHWVRQAPGKGLEWVGYIDPSNGYTYYADSVKGRFTISADTSKNTAYLQMNSLRAEDTAVYYCARDIQSVSGEFDYWGQGTLVTVSS VL: not shown | 36.3 |  |  |  |  |  |  | 
SRP2900-H05 (antibody, IgG1, V domains shown) VH: EVQLVESGGGLVQPGGSLRLSCAASGFTISDYTIHWVRQAPGKGLEWVGYIDPSNGYTYYADSVKGRFTISADTSKNTAYLQMNSLRAEDTAVYYCARDIQSVSGEFDYWGQGTLVTVSS VL: not shown | 36.2 |  |  |  |  |  |  | 
SRP2900-A06 (antibody, IgG1, V domains shown) VH: EVQLVESGGGLVQPGGSLRLSCAASGFTISSYWIHWVRQAPGKGLEWVGYIDPFNGATYYADSVKGRFTISADTSKNTAYLQMNSLRAEDTAVYYCARADYYYVDEYWDYWGQGTLVTVSS VL: not shown | 36.8 |  |  |  |  |  |  | 
SRP2900-A07 (antibody, IgG1, V domains shown) VH: EVQLVESGGGLVQPGGSLRLSCAASGFTISSYWIHWVRQAPGKGLEWVGYIDPYNGATYYADSVKGRFTISADTSKNTAYLQMNSLRAEDTAVYYCARSDYYYVDEFFDYWGQGTLVTVSS VL: not shown | 28.4 |  |  |  |  |  |  | 
Conjugate 1: 2900-A02 Y180/F404-LP1 (antibody, human IgG1, kappa, pAMF at Y180 and F404 (EU), each linked to LP1 (DBCO-Valcit-pAB-hemiasterlin)) heavy: MEVQLVESGGGLVQPGGSLRLSCAASGFTISGYIIHWVRQAPGKGLEWVGYIDPSNGYTYYADSVKGRFTISADTSKNTAYLQMNSLRAEDTAVYYCARDDQSLSSPFDYWGQGTLVTVSSASTKGPSVFPLAPSSKSTSGGTAALGCLVKDYFPEPVTVSWNSGALTSGVHTFPAVLQSSGLSLSSVVTVPSSSLGTQTYICNVNHKPSNTKVDKKVEPKSCDKTHTCPPCPAPELLGGPSVFLFPPKPKDTLMISRTPEVTCVVVDVSHEDPEVKFNWYVDGVEVHNAKTKPREEQYNSTYRVVSVLTVLHQDWLNGKEYKCKVSNKALPAPIEKTISKAKGQPREPQVYTLPPSREEMTKNQVSLTCLVKGFYPSDIAVEWESNGQPENNYKTTPPVLDSDGSFLYSKLTVDKSRWQQGNVFSCSVMHEALHNHYTQKSLSLSPGK light: not shown |  | 0.064 | 0.055 | ~25 | 95 | 85 | 62 | cell killing EC50, HCC1954, with 0.5 uM unconjugated mAb 36 [2]: > 100 nM; cell killing EC50, NCI-H1975, with 0.5 uM unconjugated mAb 36 [2]: > 100 nM
Conjugate 3: 2900-A02 Y180/F404/k42-LP1 (antibody, human IgG1, kappa, pAMF at K42 linked to LP1; pAMF at Y180 and F404 (EU), each linked to LP1 (DBCO-Valcit-pAB-hemiasterlin)) heavy: MEVQLVESGGGLVQPGGSLRLSCAASGFTISGYIIHWVRQAPGKGLEWVGYIDPSNGYTYYADSVKGRFTISADTSKNTAYLQMNSLRAEDTAVYYCARDDQSLSSPFDYWGQGTLVTVSSASTKGPSVFPLAPSSKSTSGGTAALGCLVKDYFPEPVTVSWNSGALTSGVHTFPAVLQSSGLSLSSVVTVPSSSLGTQTYICNVNHKPSNTKVDKKVEPKSCDKTHTCPPCPAPELLGGPSVFLFPPKPKDTLMISRTPEVTCVVVDVSHEDPEVKFNWYVDGVEVHNAKTKPREEQYNSTYRVVSVLTVLHQDWLNGKEYKCKVSNKALPAPIEKTISKAKGQPREPQVYTLPPSREEMTKNQVSLTCLVKGFYPSDIAVEWESNGQPENNYKTTPPVLDSDGSFLYSKLTVDKSRWQQGNVFSCSVMHEALHNHYTQKSLSLSPGK light: MDIQMTQSPSSLSASVGDRVTITCRASQDVNTAVAWYQQKPGAPKLLIYSASFLYSGVPSRFSGSRSGTDFTLTISSLQPEDFATYYCQQHYTTPPTFGQGTKVEIKRTVAAPSVFIFPPSDEQLKSGTASVVCLLNNFYPREAKVQWKVDNALQSGNSQESVTEQDSKDSTYSLSSTLTLSKADYEKHKVYACEVTHQGLSSPVTKSFNRGEC |  | 0.073 | 0.048 | ~7 | 93 | 82 | 68 | cell killing EC50, HCC1954, with 0.5 uM unconjugated mAb 39 [2]: > 100 nM; cell killing EC50, NCI-H292, with 0.5 uM unconjugated mAb 39 [2]: > 100 nM; cell killing EC50, NCI-H1975, with 0.5 uM unconjugated mAb 39 [2]: > 100 nM
Conjugate 5: 2900-A02 Y180/F404/k42/E161-LP1 (antibody, human IgG1, kappa, pAMF at K42 and E161, each linked to LP1; pAMF at Y180 and F404 (EU), each linked to LP1 (DBCO-Valcit-pAB-hemiasterlin)) heavy: MEVQLVESGGGLVQPGGSLRLSCAASGFTISGYIIHWVRQAPGKGLEWVGYIDPSNGYTYYADSVKGRFTISADTSKNTAYLQMNSLRAEDTAVYYCARDDQSLSSPFDYWGQGTLVTVSSASTKGPSVFPLAPSSKSTSGGTAALGCLVKDYFPEPVTVSWNSGALTSGVHTFPAVLQSSGLSLSSVVTVPSSSLGTQTYICNVNHKPSNTKVDKKVEPKSCDKTHTCPPCPAPELLGGPSVFLFPPKPKDTLMISRTPEVTCVVVDVSHEDPEVKFNWYVDGVEVHNAKTKPREEQYNSTYRVVSVLTVLHQDWLNGKEYKCKVSNKALPAPIEKTISKAKGQPREPQVYTLPPSREEMTKNQVSLTCLVKGFYPSDIAVEWESNGQPENNYKTTPPVLDSDGSFLYSKLTVDKSRWQQGNVFSCSVMHEALHNHYTQKSLSLSPGK light: MDIQMTQSPSSLSASVGDRVTITCRASQDVNTAVAWYQQKPGAPKLLIYSASFLYSGVPSRFSGSRSGTDFTLTISSLQPEDFATYYCQQHYTTPPTFGQGTKVEIKRTVAAPSVFIFPPSDEQLKSGTASVVCLLNNFYPREAKVQWKVDNALQSGNSQSVTEQDSKDSTYSLSSTLTLSKADYEKHKVYACEVTHQGLSSPVTKSFNRGEC |  | 0.08 | 0.045 | ~4.4 | 91 | 87 | 72 | cell killing EC50, HCC1954, with 0.5 uM unconjugated mAb 38 [2]: > 100 nM; cell killing EC50, NCI-H292, with 0.5 uM unconjugated mAb 38 [2]: > 100 nM; cell killing EC50, NCI-H1975, with 0.5 uM unconjugated mAb 38 [2]: > 100 nM
Conjugate 6: 2900-A02 Y180/F241/F404/k42-LP1 (antibody, human IgG1, kappa, pAMF at K42 linked to LP1; pAMF at Y180, F241 and F404 (EU), each linked to LP1 (DBCO-Valcit-pAB-hemiasterlin)) heavy: MEVQLVESGGGLVQPGGSLRLSCAASGFTISGYIIHWVRQAPGKGLEWVGYIDPSNGYTYYADSVKGRFTISADTSKNTAYLQMNSLRAEDTAVYYCARDDQSLSSPFDYWGQGTLVTVSSASTKGPSVFPLAPSSKSTSGGTAALGCLVKDYFPEPVTVSWNSGALTSGVHTFPAVLQSSGLSLSSVVTVPSSSLGTQTYICNVNHKPSNTKVDKKVEPKSCDKTHTCPPCPAPELLGGPSVLFPPKPKDTLMISRTPEVTCVVVDVSHEDPEVKFNWYVDGVEVHNAKTKPREEQYNSTYRVVSVLTVLHQDWLNGKEYKCKVSNKALPAPIEKTISKAKGQPREPQVYTLPPSREEMTKNQVSLTCLVKGFYPSDIAVEWESNGQPENNYKTTPPVLDSDGSFLYSKLTVDKSRWQQGNVFSCSVMHEALHNHYTQKSLSLSPGK light: MDIQMTQSPSSLSASVGDRVTITCRASQDVNTAVAWYQQKPGAPKLLIYSASFLYSGVPSRFSGSRSGTDFTLTISSLQPEDFATYYCQQHYTTPPTFGQGTKVEIKRTVAAPSVFIFPPSDEQLKSGTASVVCLLNNFYPREAKVQWKVDNALQSGNSQESVTEQDSKDSTYSLSSTLTLSKADYEKHKVYACEVTHQGLSSPVTKSFNRGEC |  | 0.085 | 0.044 | ~5 | 93 | 86 | 71 | cell killing EC50, HCC1954, with 0.5 uM unconjugated mAb 40 [2]: > 100 nM; cell killing EC50, NCI-H292, with 0.5 uM unconjugated mAb 40 [2]: > 100 nM; cell killing EC50, NCI-H1975, with 0.5 uM unconjugated mAb 40 [2]: > 100 nM
